Test results from paper PMC11615109, “PinX1 suppresses cancer progression by inhibiting telomerase activity in cervical squamous cell carcinoma and endocervical adenocarcinoma” (Genes & Diseases, 2024).

How the values were obtained:
[1] = target: TRF1 TRFH (TRF homology) domain; test: crystal structure; purified TRF1 TRFH-PinX1TBM complex, 2.7 Å
[2] = target: T1, 3×Flag-TERT (purified human telomerase) (human, UniProt O14746 1-1132); test: pull-down; 3×Flag-TERT (purified telomerase) captured by GST-PinX1 constructs (GST as control), silver staining and Western blot; conditions: both partners purified
T1 construct: TERT, the protein subunit of human telomerase; Purified as telomerase; also called purified telomerase; source: human telomerase, purified

[3] = target: T1, 3×Flag-TERT (purified human telomerase); test: pull-down; GST-PinX1-C (132-328) captured by 3×Flag-TERT (MBP-3×Flag as control), Western blot; conditions: both partners purified

T1 sequence (O14746 whole entry): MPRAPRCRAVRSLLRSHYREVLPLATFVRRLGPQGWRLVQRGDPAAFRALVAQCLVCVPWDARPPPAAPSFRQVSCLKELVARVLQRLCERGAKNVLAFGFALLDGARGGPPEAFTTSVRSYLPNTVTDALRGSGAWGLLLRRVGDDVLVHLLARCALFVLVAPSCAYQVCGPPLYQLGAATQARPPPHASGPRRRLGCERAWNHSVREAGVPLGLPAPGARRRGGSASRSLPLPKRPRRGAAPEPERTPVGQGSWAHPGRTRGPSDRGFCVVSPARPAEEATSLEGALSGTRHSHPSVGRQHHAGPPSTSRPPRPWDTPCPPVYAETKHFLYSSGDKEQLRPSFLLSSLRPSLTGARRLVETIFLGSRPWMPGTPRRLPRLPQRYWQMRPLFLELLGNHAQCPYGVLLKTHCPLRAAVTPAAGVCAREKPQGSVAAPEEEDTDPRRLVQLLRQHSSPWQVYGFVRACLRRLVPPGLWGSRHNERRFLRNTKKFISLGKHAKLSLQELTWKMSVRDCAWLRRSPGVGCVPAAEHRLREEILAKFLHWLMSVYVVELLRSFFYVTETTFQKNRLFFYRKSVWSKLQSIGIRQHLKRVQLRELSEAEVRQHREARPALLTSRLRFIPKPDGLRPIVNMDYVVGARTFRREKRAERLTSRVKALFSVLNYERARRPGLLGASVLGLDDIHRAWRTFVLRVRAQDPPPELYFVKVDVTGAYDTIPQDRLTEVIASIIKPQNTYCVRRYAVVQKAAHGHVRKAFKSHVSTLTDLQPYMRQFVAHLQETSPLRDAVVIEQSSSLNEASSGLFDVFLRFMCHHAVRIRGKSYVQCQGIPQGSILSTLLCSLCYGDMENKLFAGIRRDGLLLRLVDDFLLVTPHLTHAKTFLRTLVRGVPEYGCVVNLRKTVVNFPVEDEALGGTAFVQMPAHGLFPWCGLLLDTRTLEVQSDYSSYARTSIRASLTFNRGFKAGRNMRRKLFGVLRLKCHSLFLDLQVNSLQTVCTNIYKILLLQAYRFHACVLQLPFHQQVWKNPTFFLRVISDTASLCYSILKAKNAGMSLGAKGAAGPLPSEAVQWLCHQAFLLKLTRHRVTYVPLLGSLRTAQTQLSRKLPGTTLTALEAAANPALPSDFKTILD

## TRF1 TRFH (TRF homology) domain (domain or fragment)
[1]
  stoichiometry N: 2

B1: GST-PinX1(203-328) (domain or fragment, UniProt Q96BK5 203-328, looked up)
chain: SETQVERKRGKKRNKEATGKDVESYLQPKAKRHTEGKPERAEAQERVAKKKSAPAEEQLRGPCWDQSSKASAQDAGDHVQPPEGRDFTLKPKKRRGKKKLQKPVEIAEDATLEETLVKKKKKKDSK
notes: PinX1 residues 203-328 (TID)
[2]
  binding result: binds

B2: GST-PinX1(132-328) (domain or fragment, UniProt Q96BK5 132-328, looked up)
chain: GKDLSSRSKTDLDCIFGKRQSKKTPEGDASPSTPEENETTTTSAFTIQEYFAKRMAALKNKPQVPVPGSDISETQVERKRGKKRNKEATGKDVESYLQPKAKRHTEGKPERAEAQERVAKKKSAPAEEQLRGPCWDQSSKASAQDAGDHVQPPEGRDFTLKPKKRRGKKKLQKPVEIAEDATLEETLVKKKKKKDSK
notes: PinX1 residues 132-328; also called GST-PinX1-C (132–328); CTD (C-terminal domain)
[3]
  binding result: binds
